T1: endogenous TRAF2 (of HeLa and 293 cells) (human, UniProt Q12933 2-501)
T1 construct: 293 is called a human embryonic kidney cell line; HeLa is a human line; Detected by western blot with anti-TRAF2 polyclonal antibodies; also called TNF receptor-associated factor 2
T1 sequence (looked up): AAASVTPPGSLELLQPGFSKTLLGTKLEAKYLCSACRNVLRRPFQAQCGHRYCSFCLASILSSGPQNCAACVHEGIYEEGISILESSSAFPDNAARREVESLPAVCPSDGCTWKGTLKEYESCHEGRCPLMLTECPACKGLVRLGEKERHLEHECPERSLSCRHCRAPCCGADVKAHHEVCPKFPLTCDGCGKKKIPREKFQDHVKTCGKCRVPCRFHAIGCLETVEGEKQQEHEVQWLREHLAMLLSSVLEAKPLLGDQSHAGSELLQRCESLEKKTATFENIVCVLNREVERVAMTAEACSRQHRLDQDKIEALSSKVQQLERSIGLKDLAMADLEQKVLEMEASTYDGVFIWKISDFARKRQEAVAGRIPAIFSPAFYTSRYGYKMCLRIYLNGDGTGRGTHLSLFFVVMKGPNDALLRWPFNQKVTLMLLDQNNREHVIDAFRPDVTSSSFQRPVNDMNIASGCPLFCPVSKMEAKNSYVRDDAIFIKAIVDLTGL

T2: F-TR8-615 (FLAG epitope-tagged TR8, residues 33-615 of FIGS. 1A-C) (human) (UniProt Q9Y6Q6)
T2 sequence: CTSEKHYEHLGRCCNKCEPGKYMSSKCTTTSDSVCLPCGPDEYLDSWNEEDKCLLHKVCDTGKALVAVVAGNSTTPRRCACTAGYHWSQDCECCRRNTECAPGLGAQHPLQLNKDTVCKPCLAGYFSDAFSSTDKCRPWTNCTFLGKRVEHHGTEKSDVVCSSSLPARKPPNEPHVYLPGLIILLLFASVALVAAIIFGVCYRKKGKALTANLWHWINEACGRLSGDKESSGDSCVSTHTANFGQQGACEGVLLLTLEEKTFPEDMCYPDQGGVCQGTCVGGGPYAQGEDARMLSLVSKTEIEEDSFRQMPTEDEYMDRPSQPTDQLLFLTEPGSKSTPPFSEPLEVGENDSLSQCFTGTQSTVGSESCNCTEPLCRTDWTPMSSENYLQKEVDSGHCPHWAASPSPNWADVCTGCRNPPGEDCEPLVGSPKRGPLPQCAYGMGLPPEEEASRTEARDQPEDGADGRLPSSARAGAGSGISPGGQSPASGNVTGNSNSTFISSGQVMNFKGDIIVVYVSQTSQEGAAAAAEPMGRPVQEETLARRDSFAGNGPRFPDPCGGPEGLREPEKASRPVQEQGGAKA

B1: F-TR8-330 (FLAG-tagged TR8 C-terminal deletion lacking 285 amino acids) (receptor, not shown: small tags and cut ends)
chain: CTSEKHYEHLGRCCNKCEPGKYMSSKCTTTSDSVCLPCGPDEYLDSWNEEDKCLLHKVCDTGKALVAVVAGNSTTPRRCACTAGYHWSQDCECCRRNTECAPGLGAQHPLQLNKDTVCKPCLAGYFSDAFSSTDKCRPWTNCTFLGKRVEHHGTEKSDVVCSSSLPARKPPNEPHVYLPGLIILLLFASVALVAAIIFGVCYRKKGKALTANLWHWINEACGRLSGDKESSGDSCVSTHTANFGQQGACEGVLLLTLEEKTFPEDMCYPDQGGVCQGTCVGGGPYAQGEDARMLSLVS
notes: The C-terminal limit is inferred from the construct name and the stated deletion of 285 residues; also called F-TR8 deletion mutant
B2: F-TR8-530 (FLAG-tagged TR8 C-terminal deletion lacking 85 amino acids) (receptor, not shown: small tags and cut ends)
chain: CTSEKHYEHLGRCCNKCEPGKYMSSKCTTTSDSVCLPCGPDEYLDSWNEEDKCLLHKVCDTGKALVAVVAGNSTTPRRCACTAGYHWSQDCECCRRNTECAPGLGAQHPLQLNKDTVCKPCLAGYFSDAFSSTDKCRPWTNCTFLGKRVEHHGTEKSDVVCSSSLPARKPPNEPHVYLPGLIILLLFASVALVAAIIFGVCYRKKGKALTANLWHWINEACGRLSGDKESSGDSCVSTHTANFGQQGACEGVLLLTLEEKTFPEDMCYPDQGGVCQGTCVGGGPYAQGEDARMLSLVSKTEIEEDSFRQMPTEDEYMDRPSQPTDQLLFLTEPGSKSTPPFSEPLEVGENDSLSQCFTGTQSTVGSESCNCTEPLCRTDWTPMSSENYLQKEVDSGHCPHWAASPSPNWADVCTGCRNPPGEDCEPLVGSPKRGPLPQCAYGMGLPPEEEASRTEARDQPEDGADGRLPSSARAGAGSGISPGGQSPASGNVTGNSNS
notes: also called F-TR8 deletion mutant
B3: F-TR8-427 (FLAG-tagged TR8 C-terminal deletion lacking 188 amino acids) (receptor, not shown: small tags and cut ends)
chain: CTSEKHYEHLGRCCNKCEPGKYMSSKCTTTSDSVCLPCGPDEYLDSWNEEDKCLLHKVCDTGKALVAVVAGNSTTPRRCACTAGYHWSQDCECCRRNTECAPGLGAQHPLQLNKDTVCKPCLAGYFSDAFSSTDKCRPWTNCTFLGKRVEHHGTEKSDVVCSSSLPARKPPNEPHVYLPGLIILLLFASVALVAAIIFGVCYRKKGKALTANLWHWINEACGRLSGDKESSGDSCVSTHTANFGQQGACEGVLLLTLEEKTFPEDMCYPDQGGVCQGTCVGGGPYAQGEDARMLSLVSKTEIEEDSFRQMPTEDEYMDRPSQPTDQLLFLTEPGSKSTPPFSEPLEVGENDSLSQCFTGTQSTVGSESCNCTEPLCRTDWTPMSSENYLQKEVDS
notes: The C-terminal limit is inferred from the construct name and the stated deletion of 188 residues; also called F-TR8 deletion mutant
B4: in vitro translated 35S-labeled TRAF2 (protein, UniProt Q12933 2-501, looked up, species assumed)
TNF receptor-associated factor 2: AAASVTPPGSLELLQPGFSKTLLGTKLEAKYLCSACRNVLRRPFQAQCGHRYCSFCLASILSSGPQNCAACVHEGIYEEGISILESSSAFPDNAARREVESLPAVCPSDGCTWKGTLKEYESCHEGRCPLMLTECPACKGLVRLGEKERHLEHECPERSLSCRHCRAPCCGADVKAHHEVCPKFPLTCDGCGKKKIPREKFQDHVKTCGKCRVPCRFHAIGCLETVEGEKQQEHEVQWLREHLAMLLSSVLEAKPLLGDQSHAGSELLQRCESLEKKTATFENIVCVLNREVERVAMTAEACSRQHRLDQDKIEALSSKVQQLERSIGLKDLAMADLEQKVLEMEASTYDGVFIWKISDFARKRQEAVAGRIPAIFSPAFYTSRYGYKMCLRIYLNGDGTGRGTHLSLFFVVMKGPNDALLRWPFNQKVTLMLLDQNNREHVIDAFRPDVTSSSFQRPVNDMNIASGCPLFCPVSKMEAKNSYVRDDAIFIKAIVDLTGL
modifications: 35S-labeled

For the first assay, the target named is T1, endogenous TRAF2 (of HeLa and 293 cells). As to the kind of experiment: anti-FLAG co-immunoprecipitation from HeLa and 293 lysates, anti-TRAF2 western blot. The method, then: Immunoprecipitations and JNK Kinase Assays—From transient transfected cells, lysates were prepared and immunoprecipitated using anti-FLAG-conjugated agarose or anti-JNK1 and protein A/G sepharose for 1 hr. Where indicated, ³⁵S-labeled proteins were added to the lysate prior to immunoprecipitation. Beads were collected by centrifugation and washed four times in lysis buffer followed by two washes in kinase buffer (20 mM TRIS, pH 8, 50 mM NaCl, and 1 mM DTT). For coimmunoprecipation, proteins were eluted in SDS-sample buffer, boiled, and subjected to SDS-PAGE. Analysis of JNK activity was performed using exogenously added GST-Jun(1-79) as a substrate as previously described (Haridas et al., J. Immunol. 160:3152-3162 (1998)). Quantitation of JNK activity and ³⁵S-labeled TRAF binding was analyzed using a PhosphoImager and Imagequant Software (Molecular Dynamics, Sunnyvale, Calif.).
TRAF2, TRAF5, and TRAF6 Interact with the C-Terminus of TR8—Since most of the TNFR family members utilize TRAFs as signaling components and that TR8 contains putative TRAF binding domains, we examined the ability for TR8 to interact with various TRAFs. […] After 24-36 hr, cell lysates were prepared and epitope-tagged receptors were immunoprecipitated with anti-FLAG conjugated-agarose. Coprecipitation of endogenous TRAF2 was detected by western blotting with anti-TRAF2 polyclonal antibodies. […] Membranes were also probed with anti-FLAG to insure precipitation of epitope-tagged receptors (data not shown).
Consider B1, for which the binding result is “no binding”.
On the same count and under the same terms, then B2, with “no binding”; and B3, with “no binding”.

Another assay deals with T2, F-TR8-615 (FLAG epitope-tagged TR8, residues 33-615 of FIGS. 1A-C) (human). As to the kind of experiment: anti-FLAG co-immunoprecipitation of 35S-labeled TRAF from 293 lysates, PhosphorImager quantitation.
in vitro translated 35S-labeled TRAF6 gave a fold increase in binding relative to vector transfected cells of 5 fold.
On the same count and under the same terms, for in vitro translated 35S-labeled TRAF5 the value was 11 fold.
B4 returned a fold increase in binding relative to vector transfected cells of 145 fold.

Source of the values: patent US20030100069A1 (Human Genome Sciences, published 2003).
